Test results: paper PMC13385800 (2026)

B1: TBLR1-LgBiT wild type [not stated] / SETD5-SmBiT [not stated] (parent complex)
chain 1: MSISSDEVNFLVYRYLQESGFSHSAFTFGIESHISQSNINGALVPPAALISIIQKGLQYVEAEVSINEDGTLFDGRPIESLSLIDAVMPDVVQTRQQAYRDKLAQQQAAAAAAAAAAASQQGSAKNGENTANGEENGAHTIANNHTDMMEVDGDVEIPPNKAVVLRGHESEVFICAWNPVSDLLASGSGDSTARIWNLSENSTSGSTQLVLRHCIREGGQDVPSNKDVTSLDWNSEGTLLATGSYDGFARIWTKDGNLASTLGQHKGPIFALKWNKKGNFILSAGVDKTTIIWDAHTGEAKQQFPFHSAPALDVDWQSNNTFASCSTDMCIHVCKLGQDRPIKTFQGHTNEVNAIKWDPTGNLLASCSDDMTLKIWSMKQDNCVHDLQAHNKEIYTIKWSPTGPGTNNPNANLMLASASFDSTVRLWDVDRGICIHTLTKHQEPVYSVAFSPDGRYLASGSFDKCVHIWNTQTGALVHSYRGTGGIFEVCWNAAGDKVGASASDGSVCVLDLRK
chain 2: MSIAIPLGVTTSDTSYSDMAAGSDPESVEASPAVNEKSVYSTHNYGTTQRHGCRGLPYATIIPRSDLNGLPSPVEERCGDSPNSEGETVPTWCPCGLSQDGFLLNCDKCRGMSRGKVIRLHRRKQDNISGGDSSATESWDEELSPSTVLYTATQHTPTSITLTVRRTKPKKRKKSPEKGRAAPKTKKIKNSPSEAQNLDENTTEGWENRIRLWTDQYEEAFTNQYSADVQNALEQHLHSSKEFVGKPTILDTINKTELACNNTVIGSQMQLQLGRVTRVQKHRKILRAARDLALDTLIIEYRGKVMLRQQFEVNGHFFKKPYPFVLFYSKFNGVEMCVDARTFGNDARFIRRSCTPNAEVRHMIADGMIHLCIYAVSAITKDAEVTIAFDYEYSNCNYKVDCACHKGNRNCPIQKRNPNATELPLLPPPPSLPTIGAETRRRKARRKELEMEQQNEASEENNDQQSQEVPEKVTVSSDHEEVDNPEEKPEEEKEEVIDDQENLAHSRRTREDRKVEAIMHAFENLEKRKKRRDQPLEQSNSDVEITTTTSETPVGEETKTEAPESEVSNSVSNVTIPSTPQSVGVNTRRSSQAGDIAAEKLVPKPPPAKPSRPRPKSRISRYRTSSAQRLKRQKQANAQQAELSQAALEEGGSNSLVTPTEAGSLDSSGENRPLTGSDPTVVSITGSHVNRAASKYPKTKKYLVTEWLNDKAEKQECPVECPLRITTDPTVLATTLNMLPGLIHSPLICTTPKHYIRFGSPFIPERRRRPLLPDGTFSSCKKRWIKQALEEGMTQTSSVPQETRTQHLYQSNENSSSSSICKDNADLLSPLKKWKSRYLMEQNVTKLLRPLSPVTPPPPNSGSKSPQLATPGSSHPGEEECRNGYSLMFSPVTSLTTASRCNTPLQFELCHRKDLDLAKVGYLDSNTNSCADRPSLLNSGHSDLAPHPSLGPTSETGFPSRSGDGHQTLVRNSDQAFRTEFNLMYAYSPLNAMPRADGLYRGSPLVGDRKPLHLDGGYCSPAEGFSSRYEHGLMKDLSRGSLSPGGERACEGVPSAPQNPPQRKKVSLLEYRKRKQEAKENSAGGGGDSAQSKSKSAGAGQGSSNSVSDTGAHGVQGSSARTPSSPHKKFSPSHSSMSHLEAVSPSDSRGTSSSHCRPQENISSRWMVPTSVERLREGGSIPKVLRSSVRVAQKGEPSPTWESNITEKDSDPADGEGPETLSSALSKGATVYSPSRYSYQLLQCDSPRTESQSLLQQSSSPFRGHPTQSPGYSYRTTALRPGNPPSHGSSESSLSSTSYSSPAHPVSTDSLAPFTGTPGYFSSQPHSGNSTGSNLPRRSCPSSAASPTLQGPSDSPTSDSVSQSSTGTLSSTSFPQNSRSSLPSDLRTISLPSAGQSAVYQASRVSAVSNSQHYPHRGSGGVHQYRLQPLQGSGVKTQTGLS

Variants of: B1
Assay: NanoLuc complementation assay; n = 6–7 independent transfections per TBLR1 mutant; read off a plot

ratio to parent	Variant
~1.2	chain 1 MSISSDEVNFLVYRYLQESGFSHSAFTFGIESHISQSNINGALVPPAALISIIQKGLQYVEAEVSINEDGTLFDGRPIESLSLIDAVMPDVVQTRQQAYRDKLAQQQAAAAAAAAAAASQQGSAKNGENTANGEENGAHTIANNHTDMMEVDGDVEIPPNKAVVLRGHESEVFICAWNPVSDLLASGSGDSTARIWNLSENSTSGSTQLVLRQCIREGGQDVPSNKDVTSLDWNSEGTLLATGSYDGFARIWTKDGNLASTLGQHKGPIFALKWNKKGNFILSAGVDKTTIIWDAHTGEAKQQFPFHSAPALDVDWQSNNTFASCSTDMCIHVCKLGQDRPIKTFQGHTNEVNAIKWDPTGNLLASCSDDMTLKIWSMKQDNCVHDLQAHNKEIYTIKWSPTGPGTNNPNANLMLASASFDSTVRLWDVDRGICIHTLTKHQEPVYSVAFSPDGRYLASGSFDKCVHIWNTQTGALVHSYRGTGGIFEVCWNAAGDKVGASASDGSVCVLDLRK [chain 1 H213Q]
~0.6	chain 1 MSISSDEVNFLVYRYLQESGFSHSAFTFGIESHISQSNINGALVPPAALISIIQKGLQYVEAEVSINEDGTLFDGRPIESLSLIDAVMPDVVQTRQQAYRDKLAQQQAAAAAAAAAAASQQGSAKNGENTANGEENGAHTIANNHTDMMEVDGDVEIPPNKAVVLRGHESEVFICAWNPVSDLLASGSGDSTARIWNLSENSTSGSTQLVLRHCIREGGQDVPSNKDVTSLDWNSEGTLLATGSYDGFARIWTKDGNLASTLGQHKGPIFALKWNKKGNFILSAGVDKTTIIWDAHTGEAKQQFPFHSAPALDVDWQSNNTFASCSTGMCIHVCKLGQDRPIKTFQGHTNEVNAIKWDPTGNLLASCSDDMTLKIWSMKQDNCVHDLQAHNKEIYTIKWSPTGPGTNNPNANLMLASASFDSTVRLWDVDRGICIHTLTKHQEPVYSVAFSPDGRYLASGSFDKCVHIWNTQTGALVHSYRGTGGIFEVCWNAAGDKVGASASDGSVCVLDLRK [chain 1 D328G]
~0.06	chain 1 MSISSDEVNFLVYRYLQESGFSHSAFTFGIESHISQSNINGALVPPAALISIIQKGLQYVEAEVSINEDGTLFDGRPIESLSLIDAVMPDVVQTRQQAYRDKLAQQQAAAAAAAAAAASQQGSAKNGENTANGEENGAHTIANNHTDMMEVDGDVEIPPNKAVVLRGHESEVFICAWNPVSDLLASGSGDSTARIWNLSENSTSGSTQLVLRHCIREGGQDVPSNKDVTSLDWNSEGTLLATGSYDGFARIWTKDGNLASTLGQHKGPIFALKWNKKGNFILSAGVDKTTIIWDAHTGEAKQQFPFHSAPALDVDWQSNNTFASCSTDMCIHVCKLGQDRPIKTFQGHTNEVNAIKWDPTGNLLASCSDDMTLKIWSMKQDNCVHDLQAHNKEIYTIKWSPTGPGTNNPNANLMLASASFDSTVRLWDVDRGICIHTLTKHQEPVYSVAFSPDGRYLARGSFDKCVHIWNTQTGALVHSYRGTGGIFEVCWNAAGDKVGASASDGSVCVLDLRK [chain 1 S459R]
